In article PMC6215446, “High-level expression and molecular characterization of a recombinant prolidase from Escherichia coli NovaBlue” (PeerJ, 2018):

B1: Escherichia coli NovaBlue prolidase (EcPepQ), His6-tagged (enzyme, UniProt P21165 1-443, looked up)
chain: MESLASLYKNHIATLQERTRDALARFKLDALLIHSGELFNVFLDDHPYPFKVNPQFKAWVPVTQVPNCWLLVDGVNKPKLWFYLPVDYWHNVEPLPTSFWTEDVEVIALPKADGIGSLLPAARGNIGYIGPVPERALQLGIEASNINPKGVIDYLHYYRSFKTEYELACMREAQKMAVNGHRAAEEAFRSGMSEFDINIAYLTATGHRDTDVPYSNIVALNEHAAVLHYTKLDHQAPEEMRSFLLDAGAEYNGYAADLTRTWSAKSDNDYAQLVKDVNDEQLALIATMKAGVSYVDYHIQFHQRIAKLLRKHQIITDMSEEAMVENDLTGPFMPHGIGHPLGLQVHDVAGFMQDDSGTHLAAPAKYPYLRCTRILQPGMVLTIEPGIYFIESLLAPWREGQFSKHFNWQKIEALKPFGGIRIEDNVVIHENNVENMTRDLKLA
notes: Prolidase (Xaa-Pro dipeptidase) PepQ of E. coli NovaBlue; residue number of 443 printed; Cloned BamHI/HindIII into pQE-30; also called Xaa-Pro dipeptidase; recombinant enzyme; source: E. coli M15 (pQE-EcPepQ), IPTG-induced, purified (Ni-NTA); not shown: His6, N-terminal, kept

Experiments:
[1] = system: C[C@H](N)C(=O)N1CCC[C@H]1C(=O)O; assay: proline release, ninhydrin colorimetric assay; Lineweaver-Burk; type: biochemical, Escherichia coli; conditions: 0.1 mM Mn2+, 25 mM Tris-HCl pH 8.0, 60 °C, 10 min, substrate 0.2-14.2 mM
[2] = target: the molecule itself; assay: SEC; gel filtration on Superdex 200 HiLoad 16/60, 25 mM Tris-HCl buffer (pH 8.0) with 10 mM Mg(OAc)2 and 2 mM DTT; calibrated with thyroglobulin, aldolase, ovalbumin, ribonuclease A; apparent molecular mass of the native form

| Molecule | Km [1] | kcat [1] | stoichiometry N [2] |
| --- | --- | --- | --- |
| EcPepQ (Escherichia coli K-12) | 8.8 ± 1.1 mM | 926.5 ± 2.0 s⁻¹ | – |
| B1 | – | – | 2 |
